# Experimental data published in patent US20240116985A1 (published 2024).
# Starred links: 1 amine or outer side, 2 acyl side, 3 side chain; linkers in the order of their positions; H or OH if unused. Positions of bridges follow the written chain, without caps; N, C: chain ends. Non-standard residues stand in square brackets, D forms with d. Primed or numbered codes have the meaning given here. PyrS2″ = (S)-3-amino-1-((pent-4-en-1-yloxy)carbonyl)pyrrolidine-3-carboxylic acid (stapling residue), C=CCCCOC(=O)N1CC[C@@](N[*:1])(C(=O)[*:2])C1; B5(4) = 2,2-bis(4-pentenyl)glycine = 2-amino-2-(pent-4-en-1-yl)hept-6-enoic acid (stitching residue), C=CCCCC(CCCC=C)(N[*:1])C(=O)[*:2]; B5(3) = 2,2-bis(4-pentenyl)glycine (stitching residue), C=CCCCC(CCCC=C)(N[*:1])C(=O)[*:2]; AcLys″ = N6-acetyl-lysine, CC(=O)NCCCC[C@H](N[*:1])C(=O)[*:2]; Phe(3-COOH) = N[C@@H](Cc1cccc(C(=O)O)c1)C(=O)O; 2F3MeF = Cc1cccc(C[C@H](N[*:1])C(=O)[*:2])c1F; Phe(2-CF3) = N[C@@H](Cc1ccccc1C(F)(F)F)C(=O)O; AcLys = CC(=O)NCCCC[C@H](N[*:1])C(=O)[*:2]; Phe(2-Cl) = N[C@@H](Cc1ccccc1Cl)C(=O)O; Met(O2) = CS(=O)(=O)CC[C@H](N)C(=O)O; Bta = N[C@@H](Cc1csc2ccccc12)C(=O)O; Lys(iPr) = CC(C)NCCCC[C@H](N)C(=O)O; αAllylPro = C=CC[C@@]1(C(=O)O)CCCN1; tBuAla = CC(C)(C)C[C@H](N)C(=O)O; 3Thi = N[C@@H](Cc1ccsc1)C(=O)O; Cha = N[C@@H](CC1CCCCC1)C(=O)O; PyrS2(4) = not defined here; hSer = N[C@@H](CCO)C(=O)O; Nle = CCCC[C@H](N)C(=O)O
# B1: I-2536 (peptide)
# peptide: Ac-[αAllylPro]D[tBuAla][B5(4)]D[Phe(3-COOH)]AAF[Me2Gln][PyrS2″][2F3MeF][Bta][Me2Gln]-NH2
# modifications: staple 1-4, 4-11; not fully specified; printed as Ac-PL3-Asp-Npg-B5-Asp-3COOHF-Ala-Ala-Phe-Me2Gln-PyrS2-2F3MeF-BztA-Me2Gln-NH2
# B2: I-2535 (peptide)
# peptide: Ac-[αAllylPro]D[tBuAla][B5(4)]D[Phe(3-COOH)]AAF[Me2Gln][PyrS2″][2F3MeF][Bta][Me2Gln]-NH2
# modifications: staple 1-4, 4-11; not fully specified; printed as Ac-PL3-Asp-Npg-B5-Asp-3COOHF-Ala-Ala-Phe-Me2Gln-PyrS2-2F3MeF-BztA-Me2Gln-NH2
# B3: I-2539 (peptide)
# peptide: Ac-[αAllylPro]D[tBuAla][B5(4)]D[Phe(3-COOH)]AAF[AcLys][PyrS2″][2F3MeF][Bta][Me2Gln]-NH2
# modifications: staple 1-4, 4-11; not fully specified; printed as Ac-PL3-Asp-Npg-B5-Asp-3COOHF-Ala-Ala-Phe-AcLys-PyrS2-2F3MeF-BztA-Me2Gln-NH2
# B4: I-2538 (peptide)
# peptide: Ac-[αAllylPro]D[tBuAla][B5(4)]D[Phe(3-COOH)]AAF[MorphGln][PyrS2″][Phe(2-CF3)][Bta][Me2Gln]-NH2
# modifications: staple 1-4, 4-11; not fully specified; printed as Ac-PL3-Asp-Npg-B5-Asp-3COOHF-Ala-Ala-Phe-MorphGln-PyrS2-2F3MeF-BztA-Me2Gln-NH2
# B5: I-2540 (peptide)
# peptide: Ac-[αAllylPro]D[tBuAla][B5(4)]D[Phe(3-COOH)]AAF[AcLys″][PyrS2″][Phe(2-CF3)][Bta][Me2Gln]-NH2
# modifications: staple 1-4, 4-11; not fully specified; printed as Ac-PL3-Asp-Npg-B5-Asp-3COOHF-Ala-Ala-Phe-AcLys-PyrS2-2F3MeF-BztA-Me2Gln-NH2
# B6: I-2537 (peptide)
# peptide: Ac-[αAllylPro]D[tBuAla][B5(4)]D[Phe(3-COOH)]AAF[MorphGln][PyrS2″][2F3MeF][Bta][Me2Gln]-NH2
# modifications: staple 1-4, 4-11; not fully specified; printed as Ac-PL3-Asp-Npg-B5-Asp-3COOHF-Ala-Ala-Phe-MorphGln-PyrS2-2F3MeF-BztA-Me2Gln-NH2
# B7: I-2055 (peptide)
# peptide: Ac-[αAllylPro]D[tBuAla][B5(4)]D[Phe(3-COOH)]QAFL[PyrS2(4)][3Thi][Bta]V-NH2
# modifications: staple 1-4, 4-11; reading uncertain; also: printed as Ac-PL3-Asp-Npg-B5-Asp-3COOHF-Gln-Ala-Phe-Leu-PyrS2-3Thi-BztA-Val-NH2
# B8: I-2053 (peptide)
# peptide: Ac-[αAllylPro]D[tBuAla][B5(3)]D[Phe(3-COOH)]QAFA[PyrS2(4)][3Thi][Bta]A-NH2
# modifications: staple 1-4, 4-11; reading uncertain; also: printed as Ac-PL3-Asp-Npg-B5-Asp-3COOHF-Gln-Ala-Phe-Ala-PyrS2-3Thi-BztA-Ala-NH2
# Target: T1, B-cat-Halo (UniProt P35222 1-781, HaloTag NanoBRET 618 Ligand bound in the assay)
# T1 sequence (looked up): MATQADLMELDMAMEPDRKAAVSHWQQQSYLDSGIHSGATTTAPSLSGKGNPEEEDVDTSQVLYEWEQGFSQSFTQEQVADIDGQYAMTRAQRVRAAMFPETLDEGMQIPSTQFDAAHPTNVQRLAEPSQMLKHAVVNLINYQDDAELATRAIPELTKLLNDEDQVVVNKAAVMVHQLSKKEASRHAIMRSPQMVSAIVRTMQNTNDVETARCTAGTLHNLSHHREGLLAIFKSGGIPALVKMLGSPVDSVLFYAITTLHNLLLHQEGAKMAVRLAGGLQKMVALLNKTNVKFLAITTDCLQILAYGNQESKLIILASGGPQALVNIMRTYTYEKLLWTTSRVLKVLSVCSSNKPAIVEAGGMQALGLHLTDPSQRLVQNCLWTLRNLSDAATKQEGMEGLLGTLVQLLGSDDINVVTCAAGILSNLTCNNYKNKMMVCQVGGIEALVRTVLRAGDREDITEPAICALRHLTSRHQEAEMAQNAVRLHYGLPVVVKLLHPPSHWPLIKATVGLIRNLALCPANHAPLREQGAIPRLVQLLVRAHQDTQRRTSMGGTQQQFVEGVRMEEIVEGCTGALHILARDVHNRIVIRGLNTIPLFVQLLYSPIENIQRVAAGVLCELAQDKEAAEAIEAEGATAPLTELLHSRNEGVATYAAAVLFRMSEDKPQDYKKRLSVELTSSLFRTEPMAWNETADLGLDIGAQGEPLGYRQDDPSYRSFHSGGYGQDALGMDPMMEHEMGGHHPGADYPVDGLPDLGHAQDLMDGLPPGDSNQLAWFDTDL
# Assay: cell-based or functional assay
row,Binder,NanoBRET Abs IC50 [µM]
1,"Ac-[αAllylPro]D[tBuAla][B5(4)]D[Phe(3-COOH)]AAF[Nle][PyrS2″][2F3MeF][Bta][Me2Gln]-NH2 (staple 1-4, 4-11) [I-2533]",6.2
2,B1,4.5
3,"Ac-[αAllylPro]D[tBuAla][B5(4)]D[Phe(3-COOH)]AAFF[PyrS2″][Phe(2-CF3)][Bta][Me2Gln]-NH2 (staple 1-4, 4-11) [I-2534]",4.4
4,"Ac-[αAllylPro]D[tBuAla][B5(4)]D[Phe(3-COOH)]AAFL[PyrS2″][Phe(2-CF3)][Bta][MorphGln]-NH2 (staple 1-4, 4-11) [I-2541]",4.7
5,B2,3.7
6,"Ac-[αAllylPro]D[tBuAla][B5(4)]D[Phe(3-COOH)]AAF[Nle][PyrS2″][Phe(2-CF3)][Bta][MorphGln]-NH2 (staple 1-4, 4-11) [I-2542]",4
7,B3,3.6
8,"Ac-[αAllylPro]D[tBuAla][B5(4)]D[Phe(3-COOH)]AAFF[PyrS2″][Phe(2-CF3)][Bta][MorphGln]-NH2 (staple 1-4, 4-11) [I-2543]",7.3
9,B4,3.5
10,B5,3.5
11,B6,2.9

# Target: T2, B-cat-Halo (beta-catenin HaloTag construct expressed in HEK293 cells) (UniProt P35222 1-781)
# T2 sequence (looked up): T1 sequence (looked up)
# Assay: cell-based or functional assay
row,Binder,NanoBRET Abs IC50 [µM]
1,"Ac-[αAllylPro]D[tBuAla][B5(4)]D[Phe(3-COOH)][Met(O2)]AFL[PyrS2″][3Thi][Bta]A-NH2 (staple 1-4, 4-11) [I-2064]",11.8
2,"Ac-[αAllylPro]D[tBuAla][B5(4)]D[Phe(3-COOH)]SAFL[PyrS2″][Phe(2-CF3)][Bta]A-NH2 (staple 1-4, 4-11) [I-2059]",4.8
3,"Ac-[αAllylPro]N[Cha][B5(4)]DQ[Lys(iPr)]AFN[PyrS2″]F[Bta]F-NH2 (staple 1-4, 4-11) [I-2068]",> 20
4,"Ac-[αAllylPro]N[Cha][B5(4)]DQQAFN[PyrS2″]F[Bta]A-NH2 (staple 1-4, 4-11) [I-2070]",> 20
5,"Ac-[αAllylPro]D[tBuAla][B5(3)]D[Phe(3-COOH)]QAFF[PyrS2″][3Thi][Bta]A-NH2 (staple 1-4, 4-11) [I-2052]",6
6,"Ac-[αAllylPro]N[Cha][B5(4)]DQQAFN[PyrS2″]F[Bta][hSer]-NH2 (staple 1-4, 4-11) [I-2067]",> 20
7,B7,10.5
8,"Ac-[αAllylPro]D[tBuAla][B5(4)]D[Phe(3-COOH)]AAFL[PyrS2″][Phe(2-CF3)][Bta][Met(O2)]-NH2 (staple 1-4, 4-11) [I-2063]",3.5
9,"Ac-[αAllylPro]D[tBuAla][B5(4)]D[Phe(3-COOH)]QAFL[PyrS2″][3Thi][Bta]L-NH2 (staple 1-4, 4-11) [I-2056]",6.5
10,B8,5
11,"Ac-[αAllylPro]D[tBuAla][B5(4)]D[Phe(3-COOH)]AAFL[PyrS2″][Phe(2-Cl)][Bta][Met(O2)]-NH2 (staple 1-4, 4-11) [I-2062]",3
12,"Ac-[αAllylPro]N[Cha][B5(4)]DQ[Lys(iPr)]AFN[PyrS2″]F[Bta]A-NH2 (staple 1-4, 4-11) [I-2065]",> 20
13,"Ac-[αAllylPro]D[tBuAla][B5(4)]D[Phe(3-COOH)]NAFL[PyrS2″][Phe(2-CF3)][Bta]A-NH2 (staple 1-4, 4-11) [I-2058]",3.9
14,"Ac-[αAllylPro]N[Cha][B5(4)]DQHAFN[PyrS2″]F[Bta]A-NH2 (staple 1-4, 4-11) [I-2069]",> 20
15,"Ac-[αAllylPro]D[tBuAla][B5(4)]D[Phe(3-COOH)]TAFL[PyrS2″][Phe(2-CF3)][Bta]A-NH2 (staple 1-4, 4-11) [I-2060]",9.6
16,"Ac-[αAllylPro]D[tBuAla][B5(3)]D[Phe(3-COOH)]TAFL[PyrS2″][3Thi][Bta]A-NH2 (staple 1-4, 4-11) [I-2051]",8.3
17,"Ac-[αAllylPro]D[tBuAla][B5(4)]D[Phe(3-COOH)]QAFV[PyrS2″][3Thi][Bta]A-NH2 (staple 1-4, 4-11) [I-2054]",2.4

# Target: T3, Bcat-Halo (UniProt P35222 1-781)
# T3 sequence (looked up): T1 sequence (looked up)
# Assay: cell-based or functional assay
row,Binder,NanoBRET Abs IC50 [µM]
1,"Ac-[αAllylPro]D[tBuAla][B5(4)]D[Phe(3-COOH)]AAFF[PyrS2″][2F3MeF][Bta][dA]-NH2 (staple 1-4, 4-11) [I-2095]",10.5
